Source: paper PMC12237909, “Wheat endosperm-specific transcription factor TaDOF6 enhances grain development by regulating TaSWEET13h expression and facilitating sugar and gibberellin transport”

Target: T1, TaDOF6 (Triticum aestivum (wheat; cultivar of …, UniProt A0A3B6LII6 1-338)
T1 sequence: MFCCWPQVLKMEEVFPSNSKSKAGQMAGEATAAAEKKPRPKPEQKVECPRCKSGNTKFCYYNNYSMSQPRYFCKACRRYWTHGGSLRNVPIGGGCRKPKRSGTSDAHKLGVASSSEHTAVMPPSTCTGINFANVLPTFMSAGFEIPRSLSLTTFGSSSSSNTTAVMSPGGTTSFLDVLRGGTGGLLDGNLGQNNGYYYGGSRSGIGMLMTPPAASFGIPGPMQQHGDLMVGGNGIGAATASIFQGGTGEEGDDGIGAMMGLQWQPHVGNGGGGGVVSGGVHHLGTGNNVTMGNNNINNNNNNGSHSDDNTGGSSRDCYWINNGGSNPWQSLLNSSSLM
Test: EMSA; EMSA buffer, salt, pH and temperature not stated (gel as in Zhang et al., 2016); probes annealed 95 C to 25 C
Details: protein: recombinant; tags: His (pETMALc-H vector); label: biotin (printed at both ends of each strand); blunt

B1: TaSWEET13h promoter P-box probe (dsDNA)
DNA 1: ATTAAAGCTAAAGTGTACACCAAAGCGACAACTTTTG
DNA 2: CAAAAGTTGTCGCTTTGGTGTACACTTTAGCTTTAAT
  binding result: binds
